Measured values: article PMC4499158, “Outwitting EF-Tu and the ribosome: translation with d-amino acids”

Molecular target: EF-Tu (GTP form) (Escherichia coli K12 MG1655, UniProt P0CE47 1-394)
Assay: EMSA; GTP; L-Gln-tRNA; Native PAGE EMSA; EF-Tu preincubated with GTP, phosphoenol pyruvate and pyruvate kinase, 20 µl reactions, 3'-32P aminoacyl-tRNA; buffer, salt, pH and temperature not in the material
Details: protein: recombinant; tags: StrepTag or TwinStrep-Tag; label: 3' 32P; tRNA cloverleaf

EF-Tu (GTP form), sequence (P0CE47 whole entry): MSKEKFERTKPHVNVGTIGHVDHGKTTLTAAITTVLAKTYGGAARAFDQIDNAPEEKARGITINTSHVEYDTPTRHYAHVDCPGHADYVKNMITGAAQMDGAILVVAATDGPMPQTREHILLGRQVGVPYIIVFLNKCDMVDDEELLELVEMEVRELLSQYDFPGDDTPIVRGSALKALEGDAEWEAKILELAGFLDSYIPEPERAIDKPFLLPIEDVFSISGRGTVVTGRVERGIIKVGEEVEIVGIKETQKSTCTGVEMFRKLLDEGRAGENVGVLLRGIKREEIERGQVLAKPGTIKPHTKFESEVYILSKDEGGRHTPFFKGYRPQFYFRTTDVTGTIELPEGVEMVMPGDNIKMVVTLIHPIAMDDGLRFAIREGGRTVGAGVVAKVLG

B1: tRNAGly tp (structured_RNA)
RNA: GCGGGCGUAGUUCAAUGGUAGAACGAGAGCUUCCCAAGCUCUAUACGAAGGUUCGAUUCCUUCCGCCCGCUCCA
modifications: 3'-aminoacyl as per row
B1: binds.
